These are literature values, as cited in paper PMC10480133.

What is called Kd is the equilibrium constant for the complex coming apart.

The series has as its target GRGDSPK peptide.

For the substance Integrin αvβ3 (from UniProt P06756), the Kd is 12.2 nM.
